Measurements published in patent publication US7838231 (REGENTS OF THE UNIVERSITY OF MICHIGAN, dated 2010).

How the values were obtained:
Experiment in all cases: direct yeast two-hybrid assay
[1] = target: T1, NPHP1, human full length, yeast two-hybrid prey (human, UniProt O15259 1-732)
T1 construct: also called nephrocystin 1
T1 sequence (looked up): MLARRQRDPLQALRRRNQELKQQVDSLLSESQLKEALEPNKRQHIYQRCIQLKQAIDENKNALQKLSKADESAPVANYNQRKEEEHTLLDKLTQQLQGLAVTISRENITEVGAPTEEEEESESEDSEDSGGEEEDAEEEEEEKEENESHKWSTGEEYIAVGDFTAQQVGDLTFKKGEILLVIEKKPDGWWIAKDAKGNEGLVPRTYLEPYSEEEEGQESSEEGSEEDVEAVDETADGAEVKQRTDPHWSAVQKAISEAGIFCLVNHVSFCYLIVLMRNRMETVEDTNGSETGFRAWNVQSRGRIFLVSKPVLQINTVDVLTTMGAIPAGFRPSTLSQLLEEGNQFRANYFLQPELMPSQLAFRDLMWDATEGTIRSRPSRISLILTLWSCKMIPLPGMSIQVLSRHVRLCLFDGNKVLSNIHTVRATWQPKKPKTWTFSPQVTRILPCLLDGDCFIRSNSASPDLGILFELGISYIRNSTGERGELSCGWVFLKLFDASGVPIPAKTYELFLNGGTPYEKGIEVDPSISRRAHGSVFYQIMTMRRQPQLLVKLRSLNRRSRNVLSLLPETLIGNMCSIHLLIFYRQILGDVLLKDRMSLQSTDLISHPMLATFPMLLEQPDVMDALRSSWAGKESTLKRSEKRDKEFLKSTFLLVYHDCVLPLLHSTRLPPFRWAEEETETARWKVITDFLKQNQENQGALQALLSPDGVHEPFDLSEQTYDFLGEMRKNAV

[2] = target: T2, inversin (NPHP2), human full length, yeast two-hybrid prey (human, UniProt Q9Y283 1-1065)
T2 construct: also called INVS
T2 sequence: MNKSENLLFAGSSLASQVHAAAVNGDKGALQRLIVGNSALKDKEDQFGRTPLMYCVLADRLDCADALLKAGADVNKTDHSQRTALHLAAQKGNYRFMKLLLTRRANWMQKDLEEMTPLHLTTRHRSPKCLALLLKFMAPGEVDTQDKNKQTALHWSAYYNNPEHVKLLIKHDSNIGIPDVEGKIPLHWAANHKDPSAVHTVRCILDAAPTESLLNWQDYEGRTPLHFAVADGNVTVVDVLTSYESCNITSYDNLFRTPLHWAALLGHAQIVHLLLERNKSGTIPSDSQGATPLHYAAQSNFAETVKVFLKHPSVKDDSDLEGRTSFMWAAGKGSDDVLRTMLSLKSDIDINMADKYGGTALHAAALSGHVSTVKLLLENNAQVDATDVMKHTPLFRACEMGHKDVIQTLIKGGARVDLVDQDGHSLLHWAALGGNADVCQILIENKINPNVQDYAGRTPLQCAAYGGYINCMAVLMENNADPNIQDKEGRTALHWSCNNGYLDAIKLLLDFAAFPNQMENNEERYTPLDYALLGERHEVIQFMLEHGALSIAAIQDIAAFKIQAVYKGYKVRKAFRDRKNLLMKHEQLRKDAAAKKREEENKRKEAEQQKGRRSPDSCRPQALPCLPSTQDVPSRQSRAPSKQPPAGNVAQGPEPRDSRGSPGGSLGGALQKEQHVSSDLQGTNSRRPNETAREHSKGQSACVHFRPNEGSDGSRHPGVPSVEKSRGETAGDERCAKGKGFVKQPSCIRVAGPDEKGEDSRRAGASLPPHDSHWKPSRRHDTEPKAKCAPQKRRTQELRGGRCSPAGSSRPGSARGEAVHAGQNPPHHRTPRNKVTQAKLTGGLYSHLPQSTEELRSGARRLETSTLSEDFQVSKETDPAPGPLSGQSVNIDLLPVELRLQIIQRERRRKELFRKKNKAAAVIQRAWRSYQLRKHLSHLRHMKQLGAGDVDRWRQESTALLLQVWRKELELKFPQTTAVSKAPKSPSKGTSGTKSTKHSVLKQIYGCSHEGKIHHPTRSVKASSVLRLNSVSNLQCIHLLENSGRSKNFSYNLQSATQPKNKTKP

[3] = target: T3, BBS7, human full length, yeast two-hybrid prey (human, UniProt Q8IWZ6 1-715)
T3 sequence (looked up): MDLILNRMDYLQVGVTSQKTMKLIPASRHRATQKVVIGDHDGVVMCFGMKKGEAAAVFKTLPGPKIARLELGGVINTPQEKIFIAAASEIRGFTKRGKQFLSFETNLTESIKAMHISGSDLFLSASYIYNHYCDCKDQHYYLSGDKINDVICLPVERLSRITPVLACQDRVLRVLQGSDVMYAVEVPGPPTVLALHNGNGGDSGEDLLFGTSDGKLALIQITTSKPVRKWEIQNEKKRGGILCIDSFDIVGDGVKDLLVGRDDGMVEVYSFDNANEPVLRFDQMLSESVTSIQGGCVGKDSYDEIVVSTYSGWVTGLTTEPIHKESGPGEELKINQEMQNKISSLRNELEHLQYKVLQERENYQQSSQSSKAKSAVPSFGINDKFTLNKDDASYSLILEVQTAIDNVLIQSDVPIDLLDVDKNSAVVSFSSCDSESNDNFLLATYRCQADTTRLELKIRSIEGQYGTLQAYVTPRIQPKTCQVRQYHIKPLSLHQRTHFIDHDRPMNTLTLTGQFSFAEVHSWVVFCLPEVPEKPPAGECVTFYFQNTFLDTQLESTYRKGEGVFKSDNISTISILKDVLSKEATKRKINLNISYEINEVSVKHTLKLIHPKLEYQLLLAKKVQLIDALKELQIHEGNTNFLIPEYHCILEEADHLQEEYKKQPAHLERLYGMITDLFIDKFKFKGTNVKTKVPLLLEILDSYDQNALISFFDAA

[4] = target: T4, KIF3A, yeast two-hybrid construct (UniProt Q9Y496 1-699)
T4 construct: The construct is not described in the methods; not shown: GAL4 domain of the two-hybrid vector; not described for this construct
T4 sequence (Q9Y496 whole entry, the tested form may be a part): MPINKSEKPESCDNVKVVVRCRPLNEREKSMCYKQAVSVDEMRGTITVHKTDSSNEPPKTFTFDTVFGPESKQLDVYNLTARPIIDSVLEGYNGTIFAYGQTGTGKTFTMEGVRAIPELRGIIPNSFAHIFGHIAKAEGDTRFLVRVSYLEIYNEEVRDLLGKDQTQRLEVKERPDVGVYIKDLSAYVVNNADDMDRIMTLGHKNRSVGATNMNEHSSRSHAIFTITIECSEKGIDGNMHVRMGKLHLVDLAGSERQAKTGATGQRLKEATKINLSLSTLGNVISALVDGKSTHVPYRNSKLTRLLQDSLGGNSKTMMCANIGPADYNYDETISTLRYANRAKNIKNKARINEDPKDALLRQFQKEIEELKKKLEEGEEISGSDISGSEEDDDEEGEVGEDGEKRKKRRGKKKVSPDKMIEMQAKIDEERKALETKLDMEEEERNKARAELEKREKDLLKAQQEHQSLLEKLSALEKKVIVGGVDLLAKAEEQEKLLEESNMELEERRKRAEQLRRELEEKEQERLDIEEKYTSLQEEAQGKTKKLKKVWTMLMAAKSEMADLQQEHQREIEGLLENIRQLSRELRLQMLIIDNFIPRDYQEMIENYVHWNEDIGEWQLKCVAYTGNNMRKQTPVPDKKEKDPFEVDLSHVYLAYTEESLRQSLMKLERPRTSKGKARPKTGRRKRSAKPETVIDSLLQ

binding result [1]: no binding
binding result [2]: no binding
binding result [3]: no binding
binding result [4]: no binding
B1: full-length human nephrocystin-5 (NPHP5), yeast two-hybrid fusion (other, not shown: small tags and cut ends)
chain: MKPTGTDPRILSIAAEVAKSPEQNVPVILLKLKEIINITPLGSSELKKIKQDIYCYDLIQYCLLVLSQDYSRIQGGWTTISQLTQILSHCCVGLEPGEDAEEFYNELLPSAAENFLVLGRQLQTCFINAAKAEEKDELLHFFQIVTDSLFWLLGGHVELIQNVLQSDHFLHLLQADNVQIGSAVMMMLQNILQINSGDLLRIGRKALYSILDEVIFKLFSTPSPVIRSTATKLLLLMAESHQEILILLRQSTCYKGLRRLLSKQETGTEFSQELRQLVGLLSPMVYQEVEEQKLHQAACLIQAYWKGFQTRKRLKKLPSAVIALQRSFRSKRSKMLLEINRQKEEEDLKLQLQLQRQRAMRLSRELQLSMLEIVHPGQVEKHYREMEEKSALNIQKHWRGYRERKNFHQQRQSLIEYKAAVTLQRAALKFLAKCRKKKKLFAPWRGLQELTDARRVELKKRVDDYVRRHLGSPMSDVVSRELHAQAQERLQHYFMGRALEERAQQHREALIAQISTNVEQLMKAPSLKEAEGKEPELFLSRSRPVAAKAKQAHLTTLKHIQAPWWKKLGEESGDEIDVPKDELSIELENLFIGGTKPP
notes: Full-length NPHP5 cDNA (598 amino acid residues) fused to a GAL4 domain; also called KIAA0036
